Non-standard residues stand in square brackets, D forms with d. No end group written: not given here. Aib = CC(C)(N)C(=O)O
T1: human GIP receptor (human, UniProt P48546 22-466)
T1 sequence (looked up): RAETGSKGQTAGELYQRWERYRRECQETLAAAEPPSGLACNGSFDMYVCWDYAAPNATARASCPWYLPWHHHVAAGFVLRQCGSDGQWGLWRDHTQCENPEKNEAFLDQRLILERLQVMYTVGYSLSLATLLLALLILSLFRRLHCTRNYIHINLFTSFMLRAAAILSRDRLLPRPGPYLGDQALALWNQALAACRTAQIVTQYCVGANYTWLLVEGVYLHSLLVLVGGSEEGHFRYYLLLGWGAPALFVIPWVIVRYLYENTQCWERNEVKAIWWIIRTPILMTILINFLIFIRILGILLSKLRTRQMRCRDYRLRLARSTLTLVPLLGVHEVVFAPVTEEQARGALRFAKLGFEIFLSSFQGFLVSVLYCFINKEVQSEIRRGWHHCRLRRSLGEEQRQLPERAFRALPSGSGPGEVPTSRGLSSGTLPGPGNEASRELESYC

T2: human neuropeptide Y2 receptor (human, UniProt P49146 1-381)
T2 sequence (looked up): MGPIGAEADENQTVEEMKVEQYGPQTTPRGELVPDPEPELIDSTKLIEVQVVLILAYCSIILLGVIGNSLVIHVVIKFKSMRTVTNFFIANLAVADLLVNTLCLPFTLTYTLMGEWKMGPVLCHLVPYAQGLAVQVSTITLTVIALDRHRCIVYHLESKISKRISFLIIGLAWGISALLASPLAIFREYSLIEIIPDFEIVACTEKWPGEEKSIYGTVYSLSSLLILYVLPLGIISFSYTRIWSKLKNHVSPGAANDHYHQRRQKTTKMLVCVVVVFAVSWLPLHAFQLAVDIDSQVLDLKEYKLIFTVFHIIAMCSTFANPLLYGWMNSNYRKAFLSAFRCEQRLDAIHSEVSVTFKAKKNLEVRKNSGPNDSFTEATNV


How the values were obtained:
Assay in all cases: cell-based or functional assay
human GIP receptor = target: T1, human GIP receptor
human GLP-1 receptor = human GLP-1 receptor (human, UniProt P43220 24-463)
[1] = target: T2, human neuropeptide Y2 receptor

Binder | EC50 CreLuc hGIPR 0.5% hP (human GIP receptor) | EC50 CreLuc hGIPR 100% hP (human GIP receptor) | EC50 CreLuc hGLP1R 0.5% hP (human GLP-1 receptor) | EC50 CreLuc hGLP1R 100% hP (human GLP-1 receptor) | EC50 CreLuc hNPY2R 0.5% hP [1] | EC50 CreLuc hNPY2R 100% hP [1]
Y[Aib]EGTFTSDYSI[Aib]LEEQAQ[Aib]AFVEWLIKGGPSSGASLRHYYNWLTRQRY-NH2 (not fully specified (residue 28)) [Compound 100] | 0.1 nM | 0.87 nM | 0.12 nM | 2.21 nM | 11.2 nM | 48 nM
YXEGTFTSDYSIXLEKQAQXAFVEWLIKGGPSSAASLRHYYNWLTRQRY (Aib at 2, 13, 20; K28 side chain: C20DA-gGlu-gGlu-gGlu-gGlu-gGlu-gGlu-eLys; C-terminal NH2) [Compound 98] | 0.44 nM | 3.41 nM | 0.31 nM | 8.22 nM | 15.1 nM | 64.2 nM
YXEGTFTSDYSIXLEAQAQXAFVEWLIKGGPSSGASLRHYYNWLTRQRY (Aib at 2, 13, 20; K28 side chain: C20DA-gGlu-gGlu-gGlu-gGlu-gGlu-gGlu-eLys; C-terminal NH2) [Compound 102] | 0.98 nM | 4.01 nM | 0.33 nM | 3.48 nM | 24.9 nM | 80.7 nM
YXEGTFTSDYSIXLEKQAQXAFVEWLIKGGPSSGASXRHYYNWLTRQRY (Aib at 2, 13, 20; Tle at 37; K28 side chain: C20DA-gGlu-gGlu-gGlu-gGlu-gGlu-gGlu-eLys; C-terminal NH2) [Compound 103] | 0.26 nM | 1.73 nM | 0.13 nM | 3.19 nM | 12 nM | 50.7 nM
YXEGTFTSDYSIXLEKQAQXAFVEWLIKGGPSSGASLRHYINWLTRQRY (Aib at 2, 13, 20; K28 side chain: C20DA-gGlu-gGlu-gGlu-gGlu-gGlu-gGlu-eLys; C-terminal NH2) [Compound 106] | 0.26 nM | 2.17 nM | 0.14 nM | 3.56 nM | 20.5 nM | 74.2 nM
YXEGTFTSDYSIXLEKQAQXAFVEWLIKGGPSSGLSLRHYYNWLTRQRY (Aib at 2, 13, 20; K28 side chain: C20DA-gGlu-gGlu-gGlu-gGlu-gGlu-gGlu-eLys; C-terminal NH2) [Compound 107] | 0.27 nM | 0.99 nM | 0.13 nM | 1.88 nM | 16.7 nM | 58.5 nM
YXEGTFTSDYSILLEKQAQXAFVEWLIKGGPSSGASLRHYYNWLTRQRY (Aib at 2, 20; K28 side chain: C20DA-gGlu-Glu-gGlu-gGlu-gGlu-gGlu-eLys; C-terminal NH2) [Compound 104] | 0.06 nM | 0.6 nM | 0.09 nM | 2.06 nM | 13.4 nM | 50.7 nM
YXEGTFTSDYSIXLEGQAQXAFVEWLIKGGPSSGASLRHYYNWLTRQRY (Aib at 2, 13, 20; K28 side chain: C20DA-gGlu-gGlu-gGlu-gGlu-gGlu-gGlu-eLys; C-terminal NH2) [Compound 99] | 0.91 nM | 8.52 nM | 0.41 nM | 6.72 nM | 16.8 nM | 85.9 nM
Y[Aib]EGTFTSDYSI[Aib]LEKQAQ[Aib]AFVQWLIKGGPSEPASLRHYYNWLTRQRY-NH2 (not fully specified (residue 28)) [Compound 101] | 0.15 nM | 1.43 nM | 0.1 nM | 2.5 nM | 12.1 nM | 26.5 nM
Y[Aib]EGTFTSDYSI[Aib]LEEQAQ[Aib]AFVEWLIKGGPSSGASLRHYYNWLTRQRY-NH2 (not fully specified (residue 28)) [Compound 105] | 0.2 nM | 0.87 nM | 0.14 nM | 1.66 nM | 10.4 nM | 69 nM

From patent US20240247080A1, “GLP1/GIP/NPY2 RECEPTOR TRIPLE AGONISTS” (Boehringer Ingelheim International GmbH, priority 2022, published 2024)
